Experimental data from the Human Domainome abundance scans (Beltran et al. 2025).
± gives the uncertainty stated by the source.

B1: KAT8 regulatory NSL complex subunit 2, residues 28 to 91; numbered along this chain, Q9H9L4 (parent)
chain: CAFTHRPCSHPRLEGQEFCIKHILEDKNAPFKQCSYISTKNGKRCPNAAPKPEKKDGVSFCAEH

Variants of: B1
Assay: abundance fitness (aPCA) (normalised: wild type 0, dead -1); higher = more abundant; growth selection in yeast, the domain comes from the species named
Details: Homo sapiens

Row | Variant | abundance fitness
1 | CAFTHRPCSHPRLEGQEFCIKHILEDKNAPFKQCSYISTKNGKRCPNAAPKPEKKCGVSFCAEH [D56C] | -0.067 ± 0.19
2 | CAFTHRPCSHPRLEGQEFCIKHILEDKNAPFKQCSYISTKNGKRCPNAAPKPEKKEGVSFCAEH [D56E] | -0.113 ± 0.21
3 | CAFTHRPCSHPRLEGQEFCIKHILEDKNAPFKQCSYISTKNGKRCPNAAPKPEKKFGVSFCAEH [D56F] | -0.137 ± 0.14
4 | CAFTHRPCSHPRLEGQEFCIKHILEDKNAPFKQCSYISTKNGKRCPNAAPKPEKKHGVSFCAEH [D56H] | -0.055 ± 0.086
5 | CAFTHRPCSHPRLEGQEFCIKHILEDKNAPFKQCSYISTKNGKRCPNAAPKPEKKIGVSFCAEH [D56I] | -0.2 ± 0.1
6 | CAFTHRPCSHPRLEGQEFCIKHILEDKNAPFKQCSYISTKNGKRCPNAAPKPEKKKGVSFCAEH [D56K] | 0.011 ± 0.32
7 | CAFTHRPCSHPRLEGQEFCIKHILEDKNAPFKQCSYISTKNGKRCPNAAPKPEKKNGVSFCAEH [D56N] | -0.073 ± 0.077
8 | CAFTHRPCSHPRLEGQEFCIKHILEDKNAPFKQCSYISTKNGKRCPNAAPKPEKKPGVSFCAEH [D56P] | -0.096 ± 0.074
9 | CAFTHRPCSHPRLEGQEFCIKHILEDKNAPFKQCSYISTKNGKRCPNAAPKPEKKQGVSFCAEH [D56Q] | -0.073 ± 0.098
10 | CAFTHRPCSHPRLEGQEFCIKHILEDKNAPFKQCSYISTKNGKRCPNAAPKPEKKRGVSFCAEH [D56R] | -0.063 ± 0.086
11 | CAFTHRPCSHPRLEGQEFCIKHILEDKNAPFKQCSYISTKNGKRCPNAAPKPEKKSGVSFCAEH [D56S] | -0.067 ± 0.063
12 | CAFTHRPCSHPRLEGQEFCIKHILEDKNAPFKQCSYISTKNGKRCPNAAPKPEKKTGVSFCAEH [D56T] | -0.057 ± 0.059
13 | CAFTHRPCSHPRLEGQEFCIKHILEDKNAPFKQCSYISTKNGKRCPNAAPKPEKKWGVSFCAEH [D56W] | -0.305 ± 0.25
14 | CAFTHRPCSHPRLEGQEFCIKHILEDKNAPFKQCSYISTKNGKRCPNAAPKPEKKYGVSFCAEH [D56Y] | -0.148 ± 0.068
15 | CAFTHRPCSHPRLEGQEFCIKHILEDKNAPFKQCSYISTKNGKRCPNAAPKPEKKDDVSFCAEH [G57D] | -0.138 ± 0.21
16 | CAFTHRPCSHPRLEGQEFCIKHILEDKNAPFKQCSYISTKNGKRCPNAAPKPEKKDSVSFCAEH [G57S] | -0.372 ± 0.28
17 | CAFTHRPCSHPRLEGQEFCIKHILEDKNAPFKQCSYISTKNGKRCPNAAPKPEKKDGASFCAEH [V58A] | -0.018 ± 0.094
18 | CAFTHRPCSHPRLEGQEFCIKHILEDKNAPFKQCSYISTKNGKRCPNAAPKPEKKDGCSFCAEH [V58C] | 0.012 ± 0.064
19 | CAFTHRPCSHPRLEGQEFCIKHILEDKNAPFKQCSYISTKNGKRCPNAAPKPEKKDGDSFCAEH [V58D] | 0.009 ± 0.093
20 | CAFTHRPCSHPRLEGQEFCIKHILEDKNAPFKQCSYISTKNGKRCPNAAPKPEKKDGESFCAEH [V58E] | -0.057 ± 0.092
21 | CAFTHRPCSHPRLEGQEFCIKHILEDKNAPFKQCSYISTKNGKRCPNAAPKPEKKDGFSFCAEH [V58F] | -0.063 ± 0.08

Row | Variant | abundance fitness
22 | CAFTHRPCSHPRLEGQEFCIKHILEDKNAPFKQCSYISTKNGKRCPNAAPKPEKKDGGSFCAEH [V58G] | -0.138 ± 0.1
23 | CAFTHRPCSHPRLEGQEFCIKHILEDKNAPFKQCSYISTKNGKRCPNAAPKPEKKDGISFCAEH [V58I] | -0.048 ± 0.074
24 | CAFTHRPCSHPRLEGQEFCIKHILEDKNAPFKQCSYISTKNGKRCPNAAPKPEKKDGKSFCAEH [V58K] | -0.037 ± 0.14
25 | CAFTHRPCSHPRLEGQEFCIKHILEDKNAPFKQCSYISTKNGKRCPNAAPKPEKKDGLSFCAEH [V58L] | -0.046 ± 0.062
26 | CAFTHRPCSHPRLEGQEFCIKHILEDKNAPFKQCSYISTKNGKRCPNAAPKPEKKDGMSFCAEH [V58M] | -0.018 ± 0.11
27 | CAFTHRPCSHPRLEGQEFCIKHILEDKNAPFKQCSYISTKNGKRCPNAAPKPEKKDGNSFCAEH [V58N] | -0.178 ± 0.091
28 | CAFTHRPCSHPRLEGQEFCIKHILEDKNAPFKQCSYISTKNGKRCPNAAPKPEKKDGPSFCAEH [V58P] | -0.098 ± 0.094
29 | CAFTHRPCSHPRLEGQEFCIKHILEDKNAPFKQCSYISTKNGKRCPNAAPKPEKKDGQSFCAEH [V58Q] | 0.019 ± 0.12
30 | CAFTHRPCSHPRLEGQEFCIKHILEDKNAPFKQCSYISTKNGKRCPNAAPKPEKKDGRSFCAEH [V58R] | -0.082 ± 0.096
31 | CAFTHRPCSHPRLEGQEFCIKHILEDKNAPFKQCSYISTKNGKRCPNAAPKPEKKDGSSFCAEH [V58S] | -0.088 ± 0.072
32 | CAFTHRPCSHPRLEGQEFCIKHILEDKNAPFKQCSYISTKNGKRCPNAAPKPEKKDGTSFCAEH [V58T] | -0.1 ± 0.1
33 | CAFTHRPCSHPRLEGQEFCIKHILEDKNAPFKQCSYISTKNGKRCPNAAPKPEKKDGWSFCAEH [V58W] | -0.121 ± 0.11
34 | CAFTHRPCSHPRLEGQEFCIKHILEDKNAPFKQCSYISTKNGKRCPNAAPKPEKKDGYSFCAEH [V58Y] | -0.046 ± 0.075
35 | CAFTHRPCSHPRLEGQEFCIKHILEDKNAPFKQCSYISTKNGKRCPNAAPKPEKKDGVAFCAEH [S59A] | -0.056 ± 0.11
36 | CAFTHRPCSHPRLEGQEFCIKHILEDKNAPFKQCSYISTKNGKRCPNAAPKPEKKDGVCFCAEH [S59C] | -0.089 ± 0.14
37 | CAFTHRPCSHPRLEGQEFCIKHILEDKNAPFKQCSYISTKNGKRCPNAAPKPEKKDGVEFCAEH [S59E] | -0.243 ± 0.14
38 | CAFTHRPCSHPRLEGQEFCIKHILEDKNAPFKQCSYISTKNGKRCPNAAPKPEKKDGVFFCAEH [S59F] | -0.062 ± 0.083
39 | CAFTHRPCSHPRLEGQEFCIKHILEDKNAPFKQCSYISTKNGKRCPNAAPKPEKKDGVGFCAEH [S59G] | -0.024 ± 0.092
40 | CAFTHRPCSHPRLEGQEFCIKHILEDKNAPFKQCSYISTKNGKRCPNAAPKPEKKDGVHFCAEH [S59H] | -0.157 ± 0.15
41 | CAFTHRPCSHPRLEGQEFCIKHILEDKNAPFKQCSYISTKNGKRCPNAAPKPEKKDGVIFCAEH [S59I] | -0.006 ± 0.12
42 | CAFTHRPCSHPRLEGQEFCIKHILEDKNAPFKQCSYISTKNGKRCPNAAPKPEKKDGVLFCAEH [S59L] | -0.037 ± 0.078
